Literature values in publication PMC2783296.

Molecular target: Glu134 (UniProt position 134, VVLAIERYVVV)
Test: IR
Settings: Photoactivated metarhodopsin II (all-trans retinal, unprotonated Schiff base)

In the case of “Rhodopsin (metarhodopsin II photointermediate) (Bos taurus (inferred; species not stated in the article))”, the pKa is listed as 6.3.
